For experiment [1], the target named is T1, tau peptide 256-285.
T1 peptide: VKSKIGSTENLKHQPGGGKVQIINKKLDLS
The experiment can be described thus: ELISA; IgG4.

The target in experiment [2] is T2, tau peptide 314-342.
T2 peptide: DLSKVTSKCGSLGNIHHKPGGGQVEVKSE
The experiment can be described thus: ELISA; IgG4.

The target in experiment [3] is T3, tau peptide 352-380.
T3 peptide: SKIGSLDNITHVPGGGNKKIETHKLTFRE
Kind of experiment: ELISA; IgG4.

In experiment [4] the target is T4, tau peptide 282-311.
T4 peptide: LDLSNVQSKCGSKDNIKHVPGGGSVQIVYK
The experiment can be described thus: ELISA.

Experiment [5] has as its target T5, misdisordered truncated tau 151-391/4R (UniProt P10636 468-708). The experiment can be described thus: SPR; IgG4.
For experiment [6], the target named is T6, full length physiological tau 2N4R (UniProt P10636 1-758). The experiment can be described thus: SPR; IgG4.
Experiment [7] addresses T5, misdisordered truncated tau 151-391/4R. The experiment can be described thus: SPR.
For experiment [8] the target is unchanged. The experiment can be described thus: SPR. The source holds these as a separate data set.
Experiment [9] shares this target. Kind of experiment: ELISA; IgG1.
Experiment [10] concerns the target T6, full length physiological tau 2N4R. Kind of experiment: ELISA; IgG1.
For experiment [11], the target named is T5, misdisordered truncated tau 151-391/4R. The experiment can be described thus: SPR; IgG1.
In experiment [12] the target is T6, full length physiological tau 2N4R. The experiment can be described thus: SPR; IgG1.
The target of experiment [13] is T4, tau peptide 282-311. The experiment can be described thus: ELISA.
In experiment [14] the target is T1, tau peptide 256-285. The experiment can be described thus: ELISA.
Experiment [15] has as its target T2, tau peptide 314-342. The experiment can be described thus: ELISA.
In experiment [16] the target is T3, tau peptide 352-380. Kind of experiment: ELISA.
Experiment [17] concerns the target T4, tau peptide 282-311. The experiment can be described thus: ELISA.
For experiment [18], the target named is T1, tau peptide 256-285. The experiment can be described thus: ELISA.
For experiment [19], the target named is T2, tau peptide 314-342. Kind of experiment: ELISA.
Experiment [20] addresses T3, tau peptide 352-380. Kind of experiment: ELISA.
For experiment [21], the target named is T5, misdisordered truncated tau 151-391/4R. Kind of experiment: ELISA.
The target is the same in experiment [22]. Kind of experiment: SPR. This is another data set of the same source.
Experiment [23] shares this target. The experiment can be described thus: SPR. The source holds these as a separate data set.
Experiment [24] concerns the target T6, full length physiological tau 2N4R. The experiment can be described thus: SPR.
For experiment [25], the target named is T1, tau peptide 256-285. Kind of experiment: ELISA.
The target in experiment [26] is T2, tau peptide 314-342. The experiment can be described thus: ELISA.
For experiment [27], the target named is T3, tau peptide 352-380. The experiment can be described thus: ELISA.
Experiment [28] deals with T5, misdisordered truncated tau 151-391/4R. Kind of experiment: SPR. The source holds these as a separate data set.

Changes are numbered by the printed parent chain. Where two headings read alike, the source gives them in different places.

T5 sequence (P10636 468-708): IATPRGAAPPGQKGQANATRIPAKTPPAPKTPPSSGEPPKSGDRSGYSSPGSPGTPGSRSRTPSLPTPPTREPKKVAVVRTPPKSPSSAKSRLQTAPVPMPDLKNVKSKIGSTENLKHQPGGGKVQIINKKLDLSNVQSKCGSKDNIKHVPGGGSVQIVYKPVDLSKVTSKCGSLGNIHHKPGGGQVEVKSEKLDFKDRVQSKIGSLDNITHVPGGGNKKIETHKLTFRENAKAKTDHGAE
T6 sequence (P10636 other isoform, or with tags, fused parts or gaps): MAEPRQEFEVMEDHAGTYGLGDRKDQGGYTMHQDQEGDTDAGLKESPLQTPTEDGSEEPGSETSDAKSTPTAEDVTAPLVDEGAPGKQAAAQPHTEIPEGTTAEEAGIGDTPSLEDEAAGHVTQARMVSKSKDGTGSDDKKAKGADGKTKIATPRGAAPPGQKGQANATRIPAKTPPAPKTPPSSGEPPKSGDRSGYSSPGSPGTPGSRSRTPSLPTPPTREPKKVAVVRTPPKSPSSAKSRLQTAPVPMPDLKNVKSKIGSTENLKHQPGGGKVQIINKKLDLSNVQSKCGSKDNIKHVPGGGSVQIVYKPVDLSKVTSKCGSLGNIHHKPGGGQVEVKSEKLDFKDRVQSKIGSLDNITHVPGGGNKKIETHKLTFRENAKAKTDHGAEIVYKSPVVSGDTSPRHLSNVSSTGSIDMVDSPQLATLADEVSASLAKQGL

B1: AX016-IgG4, humanized DC8E8 RHD/RKB, IgG4 isotype (antibody)
heavy: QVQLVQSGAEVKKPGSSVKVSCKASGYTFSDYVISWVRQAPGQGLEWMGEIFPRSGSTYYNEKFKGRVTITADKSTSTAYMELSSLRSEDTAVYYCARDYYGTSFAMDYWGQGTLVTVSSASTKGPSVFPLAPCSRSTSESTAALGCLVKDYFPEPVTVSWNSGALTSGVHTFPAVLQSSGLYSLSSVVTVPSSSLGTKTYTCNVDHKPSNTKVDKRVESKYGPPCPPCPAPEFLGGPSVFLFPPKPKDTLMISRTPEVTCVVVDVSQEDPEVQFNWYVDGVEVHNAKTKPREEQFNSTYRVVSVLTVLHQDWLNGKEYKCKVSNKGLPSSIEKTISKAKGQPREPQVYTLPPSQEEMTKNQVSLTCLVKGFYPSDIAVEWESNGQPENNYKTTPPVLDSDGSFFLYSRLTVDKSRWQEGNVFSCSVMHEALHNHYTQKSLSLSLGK
light: DIVMSQSPLSLPVTPGEPASISCKSSQSLLNSRTRKNYLAWYLQKPGQSPQLLIYWASTRESGVPDRFTGSGSGTDFTLKISRVEAEDVGVYYCKQSFYLRTFGQGTKVEIKRTVAAPSVFIFPPSDEQLKSGTASVVCLLNNFYPREAKVQWKVDNALQSGNSQESVTEQDSKDSTYSLSSTLTLSKADYEKHKVYACEVTHQGLSSPVTKSFNRGEC
On to B1, for which the concentration giving a half-maximal response (EC50) with tau peptide 256-285 [1] was found to be 0.0139 µg/mL; with tau peptide 314-342 [2] it was 0.0153 µg/mL; with tau peptide 352-380 [3], 0.085 µg/mL; with tau peptide 282-311 [4], 0.00756 µg/mL. The values for the Ka in [5] and in [6] were 7.2e+08 M⁻¹ and 6.6e+07 M⁻¹, respectively.

B2: AX004-IgG4, humanized DC8E8 RHD/RKA, IgG4 isotype (antibody)
heavy: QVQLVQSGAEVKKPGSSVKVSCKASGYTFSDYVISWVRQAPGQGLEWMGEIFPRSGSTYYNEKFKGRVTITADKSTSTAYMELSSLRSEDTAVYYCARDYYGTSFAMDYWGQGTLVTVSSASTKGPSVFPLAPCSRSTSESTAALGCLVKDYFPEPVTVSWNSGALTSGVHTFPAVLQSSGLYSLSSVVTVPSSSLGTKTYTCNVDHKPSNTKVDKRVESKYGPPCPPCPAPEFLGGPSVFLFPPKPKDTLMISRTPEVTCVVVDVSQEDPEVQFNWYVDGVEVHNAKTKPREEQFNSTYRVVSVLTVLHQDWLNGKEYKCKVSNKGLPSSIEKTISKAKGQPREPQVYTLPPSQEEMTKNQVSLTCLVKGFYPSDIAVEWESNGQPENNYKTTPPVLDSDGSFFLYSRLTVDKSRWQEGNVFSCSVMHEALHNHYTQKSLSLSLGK
light: B1 light with S5T
On to B2, for which the EC50 in the experiment with tau peptide 256-285 [1] turned out to be 0.0132 µg/mL; with tau peptide 314-342 [2], 0.013 µg/mL; with tau peptide 352-380 [3], 0.0814 µg/mL; in the experiment with tau peptide 282-311 [4] it was 0.0067 µg/mL. In addition, the Ka in [5] came out at 7.75e+08 M⁻¹; in experiment [6], 6.5e+07 M⁻¹.

B3: AX004, humanized DC8E8 RHD/RKA (isotype not stated where tested) (antibody)
VH: QVQLVQSGAEVKKPGSSVKVSCKASGYTFSDYVISWVRQAPGQGLEWMGEIFPRSGSTYYNEKFKGRVTITADKSTSTAYMELSSLRSEDTAVYYCARDYYGTSFAMDYWGQGTLVTVSS
light: B1 light with S5T
Consider B3, for which the Kd in experiment [7] and in [8] was 14.7 nM throughout.

B4: AX004-IgG1, humanized DC8E8 RHD/RKA, IgG1 isotype (antibody)
heavy: not shown
light: B1 light with S5T
For B4, the concentration for a half-maximal effect (EC50) in experiment [9] is 0.0147 µg/mL; in [10] it was 0.0532 µg/mL; in the experiment with tau peptide 282-311 [13], 0.00598 µg/mL; in the experiment with tau peptide 256-285 [14], 0.0121 µg/mL; with tau peptide 314-342 [15] it was 0.0118 µg/mL; in the experiment with tau peptide 352-380 [16], 0.0587 µg/mL. Also, the Ka worked out at 1.6e+09 M⁻¹ in [11] and 1.1e+08 M⁻¹ in [12].

B5: AX005-IgG1, humanized DC8E8 RHE/RKA, IgG1 isotype (antibody)
heavy: not shown
light: B1 light with S5T
As to B5, the EC50 in the experiment with tau peptide 282-311 [13] worked out at 0.0068 µg/mL; with tau peptide 314-342 [15], 0.0562 µg/mL; with tau peptide 352-380 [16], 0.579 µg/mL.

B6: AX016-IgG1, humanized DC8E8 RHD/RKB, IgG1 isotype (antibody)
heavy: not shown
light: B1 light
For B6, the 50% effective concentration (EC50) in experiment [9] came to 0.0137 µg/mL; in experiment [10], 0.0513 µg/mL; in the experiment with tau peptide 282-311 [13], 0.00647 µg/mL; in the experiment with tau peptide 256-285 [14], 0.0117 µg/mL; with tau peptide 314-342 [15] it was 0.0122 µg/mL; with tau peptide 352-380 [16], 0.0566 µg/mL. In addition, the Ka came to 1.6e+09 M⁻¹ in [11] and 1.9e+08 M⁻¹ in [12].

B7: AX017-IgG1, humanized DC8E8 RHE/RKB, IgG1 isotype (antibody)
heavy: not shown
light: B1 light
With B7, the EC50 in the experiment with tau peptide 282-311 [13] is 0.00766 µg/mL; in the experiment with tau peptide 314-342 [15], 0.096 µg/mL; with tau peptide 352-380 [16], 0.883 µg/mL.

B8: AX017-IgG4, humanized DC8E8 RHE/RKB, IgG4 isotype (antibody)
heavy: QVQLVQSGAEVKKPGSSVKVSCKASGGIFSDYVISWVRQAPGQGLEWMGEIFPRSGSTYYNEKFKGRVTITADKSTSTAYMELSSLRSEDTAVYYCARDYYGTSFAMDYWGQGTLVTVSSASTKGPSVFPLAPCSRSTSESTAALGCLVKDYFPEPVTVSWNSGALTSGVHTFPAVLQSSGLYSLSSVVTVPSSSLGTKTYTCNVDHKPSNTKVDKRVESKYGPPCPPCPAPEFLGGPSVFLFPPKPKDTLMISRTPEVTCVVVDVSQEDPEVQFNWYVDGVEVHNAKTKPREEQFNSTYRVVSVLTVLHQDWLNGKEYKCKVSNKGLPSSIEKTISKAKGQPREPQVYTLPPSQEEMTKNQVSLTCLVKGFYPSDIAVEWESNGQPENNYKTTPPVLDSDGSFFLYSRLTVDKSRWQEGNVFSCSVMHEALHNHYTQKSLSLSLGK
light: B1 light
In the case of B8, the 50% effective concentration (EC50) was found to be 0.0726 µg/mL in the experiment with tau peptide 314-342 [2], 0.385 µg/mL in the experiment with tau peptide 352-380 [3] and 0.00901 µg/mL with tau peptide 282-311 [4].

B9: AX005-IgG4, humanized DC8E8 RHE/RKA, IgG4 isotype (antibody)
heavy: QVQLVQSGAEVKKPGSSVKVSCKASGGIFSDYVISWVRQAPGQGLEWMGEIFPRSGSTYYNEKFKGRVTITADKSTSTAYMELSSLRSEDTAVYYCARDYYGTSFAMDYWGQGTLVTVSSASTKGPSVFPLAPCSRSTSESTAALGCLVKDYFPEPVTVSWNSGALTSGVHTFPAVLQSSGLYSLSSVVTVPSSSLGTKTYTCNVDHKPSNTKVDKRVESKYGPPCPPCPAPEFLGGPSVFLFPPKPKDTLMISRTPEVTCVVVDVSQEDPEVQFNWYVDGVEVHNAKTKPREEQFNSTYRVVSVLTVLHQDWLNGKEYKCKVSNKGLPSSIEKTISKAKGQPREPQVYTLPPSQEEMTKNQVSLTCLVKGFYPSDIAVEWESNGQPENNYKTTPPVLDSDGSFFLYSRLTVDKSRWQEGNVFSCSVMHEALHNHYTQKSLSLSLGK
light: B1 light with S5T
B9: the EC50 with tau peptide 314-342 [2] is 0.0745 µg/mL; in the experiment with tau peptide 352-380 [3], 0.397 µg/mL; with tau peptide 282-311 [4], 0.00898 µg/mL.

B10: mouse monoclonal antibody DC8E8 (antibody)
heavy: QVQLQQSGPELVKPGTSVKMPCKASGYIFTDYVISWVKQRTGQGLEWIGEIFPRSGSTYYNEKFKGKATLTADKSSNTAYMQLSSVTSEDSAVYFCARDYYGTSFAMDYWGQGTSVTVSSAKTTPPSVYPLAPGSAAQTNSMVTLGCLVKGYFPEPVTVTWNSGSLSSGVHTFPAVLQSDLYTLSSSVTVPSSTWPSQTVTCNVAHPASSTKVDKKIVPRDCGCKPCICTVPEVSSVFIFPPKPKDVLTITLTPKVTCVVVDISKDDPEVQFSWFVDDVEVHTAQTKPREEQINSTFRSVSELPIMHQDWLNGKEFKCRVNSAAFPAPIEKTISKTKGRPKAPQVYTIPPPKEQMAKDKVSLTCMITNFFPEDITVEWQWNGQPAENYKNTQPIMDTDGSYFVYSKLNVQKSNWEAGNTFTCSVLHEGLHNHHTEKSLSHSPGK
VL: DIVMSQSPSSLAVSAGEKVTMSCKSSQSLLNSRTRKNYLAWYQQKPGQSPKLLIYWASTRESGVPDRFTGSGSGTDFTLTISSVQAEDLAVYYCKQSFYLRTFGGGTKLDIK
Consider B10, for which the concentration for a half-maximal effect (EC50) with tau peptide 282-311 [17] came out at 0.0118 µg/mL; with tau peptide 256-285 [18] it was 0.0433 µg/mL; with tau peptide 314-342 [19] it was 0.039 µg/mL; with tau peptide 352-380 [20] it was 0.213 µg/mL; in [21], 0.0448 µg/mL. Besides, the Kd in [8] and in [22] was 10.4 nM throughout. In addition, the values for the Ka in [23] and in experiment [24] were 1.9e+08 M⁻¹ and 3.9e+07 M⁻¹, respectively.

B11: chimeric DC8E8 (isotype not stated where tested) (antibody)
VH: QVQLQQSGPELVKPGTSVKMPCKASGYIFTDYVISWVKQRTGQGLEWIGEIFPRSGSTYYNEKFKGKATLTADKSSNTAYMQLSSVTSEDSAVYFCARDYYGTSFAMDYWGQGTSVTVSS
light: DIVMSQSPSSLAVSAGEKVTMSCKSSQSLLNSRTRKNYLAWYQQKPGQSPKLLIYWASTRESGVPDRFTGSGSGTDFTLTISSVQAEDLAVYYCKQSFYLRTFGGGTKLDIKRTVAAPSVFIFPPSDEQLKSGTASVVCLLNNFYPREAKVQWKVDNALQSGNSQESVTEQDSKDSTYSLSSTLTLSKADYEKHKVYACEVTHQGLSSPVTKSFNRGEC
As for B11, the concentration for a half-maximal effect (EC50) with tau peptide 282-311 [17] was 0.00731 µg/mL; with tau peptide 256-285 [18] it was 0.0212 µg/mL; with tau peptide 314-342 [19], 0.0173 µg/mL; with tau peptide 352-380 [20] it was 0.087 µg/mL; with tau peptide 282-311 [4], 0.00852 µg/mL; in the experiment with tau peptide 256-285 [25], 0.0297 µg/mL. The values for the EC50 with tau peptide 314-342 [26] and with tau peptide 352-380 [27] were 0.0265 µg/mL and 0.0814 µg/mL, respectively. Besides, the Kd in experiment [8] and in experiment [28] was 10.4 nM in each case. Also, the Ka in [23] amounted to 4.2e+08 M⁻¹; in [24], 4.4e+07 M⁻¹.

B12: chimeric DC8E8, human IgG1/kappa (antibody)
heavy: not shown
light: B11 light
With B12, the concentration for a half-maximal effect (EC50) in experiment [21] was 0.0214 µg/mL.

B13: chimeric DC8E8, human IgG4/kappa (antibody)
heavy: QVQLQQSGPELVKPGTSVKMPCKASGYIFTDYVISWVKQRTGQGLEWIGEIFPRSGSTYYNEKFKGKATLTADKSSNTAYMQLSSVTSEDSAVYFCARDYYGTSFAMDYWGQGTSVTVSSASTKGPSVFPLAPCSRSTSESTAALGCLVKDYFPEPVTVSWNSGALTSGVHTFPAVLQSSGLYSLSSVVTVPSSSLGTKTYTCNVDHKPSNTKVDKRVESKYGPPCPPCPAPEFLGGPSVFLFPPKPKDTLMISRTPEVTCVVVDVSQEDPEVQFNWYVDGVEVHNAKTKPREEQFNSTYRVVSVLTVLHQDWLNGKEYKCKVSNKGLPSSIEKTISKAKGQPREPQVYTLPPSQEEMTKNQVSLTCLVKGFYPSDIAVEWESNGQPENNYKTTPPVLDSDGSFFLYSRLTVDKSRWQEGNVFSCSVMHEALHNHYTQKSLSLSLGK
light: B11 light
In turn, B13 returned an EC50 in experiment [21] of 0.0507 µg/mL.

These data come from US20180142007A1 (published 2018).
